Source: patent US20130023423, “TRANSPOSON NUCLEIC ACIDS COMPRISING A CALIBRATION SEQUENCE FOR DNA SEQUENCING” (Finnzymes Oy, published 2013)
Positions count from the first letter of the chain named.

What was measured:
Conditions in all cases: chain copies: 4
MuA transposase [1] = molecular target: T1, MuA transposase (UniProt P07636 P07636:1-663); assay: EMSA; transpososome complex band about 300 bp; 30 C 1 h, Tris pH 8, EDTA, NaCl, 10% DMSO; complexes fragment gDNA with 10 mM MgCl2 (FIG. 2)
MuA transposase [2] = molecular target: T1, MuA transposase; assay: EMSA; no complex formed, no transposition activity; 30 C 1 h
MuA transposase [3] = molecular target: T1, MuA transposase; assay: EMSA; complexes formed and active; 30 C 1 h
MuA transposase [4] = molecular target: T1, MuA transposase; assay: EMSA; worked well in complex formation and gDNA fragmentation; the cited figure shows fragmentation
MuA transposase [5] = molecular target: T1, MuA transposase; assay: EMSA; worked well in complex formation and gDNA fragmentation (FIG. 4)

T1 sequence (P07636 whole entry, the tested form may be a part, one chain of several): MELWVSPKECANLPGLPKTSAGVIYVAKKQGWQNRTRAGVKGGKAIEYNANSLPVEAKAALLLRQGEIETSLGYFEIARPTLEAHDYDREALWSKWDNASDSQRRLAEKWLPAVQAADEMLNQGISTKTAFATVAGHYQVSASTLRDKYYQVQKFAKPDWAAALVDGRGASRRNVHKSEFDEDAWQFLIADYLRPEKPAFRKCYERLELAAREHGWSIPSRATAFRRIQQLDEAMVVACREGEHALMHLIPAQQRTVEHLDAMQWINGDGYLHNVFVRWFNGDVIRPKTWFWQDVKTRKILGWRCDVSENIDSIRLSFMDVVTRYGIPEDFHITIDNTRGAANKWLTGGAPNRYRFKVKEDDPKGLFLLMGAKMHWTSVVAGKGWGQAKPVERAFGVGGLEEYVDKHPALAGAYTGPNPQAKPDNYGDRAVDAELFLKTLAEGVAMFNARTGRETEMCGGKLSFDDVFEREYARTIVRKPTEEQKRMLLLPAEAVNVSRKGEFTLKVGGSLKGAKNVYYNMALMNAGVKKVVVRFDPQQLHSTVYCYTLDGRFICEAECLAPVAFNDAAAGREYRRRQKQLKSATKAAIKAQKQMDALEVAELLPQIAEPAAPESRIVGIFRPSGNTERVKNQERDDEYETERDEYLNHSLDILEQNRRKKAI

B1: native Mu transposon end (dsDNA)
DNA 1: GTTTTCGCATTTATCGTGAAACGCTTTCGCGTTTTTCGTGCGCCGCTTCA
DNA 2: TGAAGCGGCGCACGAAAAACGCGAAAGCGTTTCACGATAAATGCGAAAAC
- binding result (MuA transposase [1]): binds

B2: Mu end with 3' TCAG key (dsDNA)
DNA 1: B1 DNA 1 with T48C, C49A, A50G
DNA 2: B1 DNA 2 with T1C, G2T, A3G
- binding result (MuA transposase [2]): no binding

B3: Mu end with GTCA key (dsDNA)
DNA 1: B1 DNA 1 with T47G
DNA 2: B1 DNA 2 with A4C
- binding result (MuA transposase [3]): binds

B4: Mu end with TGCA key (dsDNA)
DNA 1: B1 DNA 1 with T48G
DNA 2: B1 DNA 2 with A3C
- binding result (MuA transposase [3]): binds

B5: Mu end modified at 10th and 11th bases (dsDNA)
DNA 1: B1 DNA 1 with G40C, C41A
DNA 2: B1 DNA 2 with G10T, C11G
- binding result (MuA transposase [4]): binds

B6: Mu end with internal TCAG key (5th, 6th, 8th bases) (dsDNA)
DNA 1: B1 DNA 1 with C43T, G45A, C46G
DNA 2: B1 DNA 2 with G5C, C6T, G8A
- binding result (MuA transposase [5]): binds
